According to patent US20190071668:

Target: T1, Androgen receptor (AR) (Homo sapiens?) (UniProt P10275)
T1 sequence: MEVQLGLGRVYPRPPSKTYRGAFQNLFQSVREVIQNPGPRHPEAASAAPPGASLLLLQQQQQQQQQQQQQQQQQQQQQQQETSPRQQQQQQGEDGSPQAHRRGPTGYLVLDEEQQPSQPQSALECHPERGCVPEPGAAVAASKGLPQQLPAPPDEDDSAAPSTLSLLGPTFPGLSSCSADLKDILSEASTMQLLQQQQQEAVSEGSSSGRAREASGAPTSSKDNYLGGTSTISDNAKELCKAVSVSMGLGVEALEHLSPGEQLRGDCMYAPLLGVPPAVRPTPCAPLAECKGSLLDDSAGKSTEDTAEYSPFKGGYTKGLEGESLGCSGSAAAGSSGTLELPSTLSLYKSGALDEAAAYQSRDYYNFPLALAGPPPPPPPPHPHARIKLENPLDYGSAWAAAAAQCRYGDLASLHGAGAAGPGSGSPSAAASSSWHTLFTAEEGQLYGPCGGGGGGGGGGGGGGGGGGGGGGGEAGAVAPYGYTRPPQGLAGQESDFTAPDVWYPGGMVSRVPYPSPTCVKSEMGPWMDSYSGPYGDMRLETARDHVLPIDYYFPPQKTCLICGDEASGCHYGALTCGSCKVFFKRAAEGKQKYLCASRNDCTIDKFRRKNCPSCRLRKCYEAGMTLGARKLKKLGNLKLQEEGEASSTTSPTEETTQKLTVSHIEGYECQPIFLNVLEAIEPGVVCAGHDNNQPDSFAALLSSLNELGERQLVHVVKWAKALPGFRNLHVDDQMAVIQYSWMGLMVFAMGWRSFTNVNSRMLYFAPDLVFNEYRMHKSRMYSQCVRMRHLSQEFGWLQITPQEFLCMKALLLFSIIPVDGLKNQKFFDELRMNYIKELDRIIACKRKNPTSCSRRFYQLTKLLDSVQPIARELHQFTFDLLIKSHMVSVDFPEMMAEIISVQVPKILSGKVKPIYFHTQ
Experiment: pulldown
Settings: RIP; not significantly above background SLNCR

## SLNCR1 delta 568-637
  binding signal (fold enrichment): 14
